Test results as given in patent publication US20260209316A1 (US Dept. of Health and Human Services, published 2026).
Positions count from the first letter of the chain named.

B1: Fab generated from 338S (Fab, V domains shown)
VH: EVQLVESGGGVVQPGRSLRLSCAASGFTFSQYGMHWVRQAPGKGLECVAVIWFDGSKKYYGDSVKGRFTISRDNSKNTLYLQMNSLRAEDTAVYFCARESLYYYDSGGHYYERGRIDYWGQGTLVTVSS
VL: DIQMTQSPSSLSASVGDRVTITCRASQDISNFLAWFQQKPGKAPKSLIYAASSLLSGVPSKFSGSGSGTDFTLTISSLQPEDFATYYCQQYNSYPPTFGQGTKLEIK
B2: Fab generated from 528S (Fab, V domains shown)
VH: EVQLAESGGGVVQPGRSLRLSCAASGFTFNSYGMHWVRQAPGKGLEWVAVIWDDGSKKYYADSVKGRFTISRDNSKNTLFLQMNSLRAEDTAVYYCARETIMFTFGEVIVSSRDNYYMDVWGKGTTVTVSS
VL: EIVLTQSPATLSLSPGERATLSCRASQSVSNYLAWYQQKPGQAPRLLIYDASTRAIGIPARFSGVGSGTDFTLTISSLEPEDFAVYYCQQRSNWPPLTFGGGTKVEIK
notes: also called 528S Fab
B3: Fab generated from 377S (Fab, V domains shown)
VH: QVQLVQSGAEVKKPGSSVKVSCKASGGTFSNYAINWVRQAPGQGLEWMGRTIPFLGLTNYAENFQARVTITADKSTGTSYMQLSSLRSEDTAVYFCAKAATSGWSPFDNWGQGTLVTVSS
VL: EIVLTQSPGTLSLSPGERATLSCRASQSISSSYFGWYQQKPGQAPRLLIYGASRRAAGIPDRFSCSGSGTDFTLTISRLEPEDFGVYYCQQYGSSPTFGQGTKVEIK
B4: Fab generated from 315S (Fab, V domains shown)
VH: EVQLVESGGGVVQPGRSLRLSCAASGFTFKTYTMHWVRQAPGKGLEWVAVITDDGVNKKYADSVKGRFTISRDNSKNTLYLQMNSLRLEDTAVYYCARSVVVLAAYPLDYWGQGTMVTVSS
VL: DIQMTQSPSSLSASVGDRVTITCRASQTISTYLHWYQQRPGKAPKLLIYAASSLQSGVPSRVSGSGSGTDFTLTITSLQPEDFATYYCLQTYSLPLTFGGGTNVEIK
notes: also called 315S Fab
B5: Fab generated from 335S (Fab, V domains shown)
VH: EVQLVESGGGVVQPGRSLRLSCAASGFSFSNYAMHWVRQAPGKGLEWVAVTWYDGSSKYHADSVKGRFTISRDNSKNTLYLQMNSLRAEDTAVYYCARWGMGIVASPGNVLNYYYFMDVWGQGTTVIVSS
VL: SYELTQPPSVSVSPGQTARITCSGNPLPKKHTYWYQQKPGQAPVLMIYKDSERPSRIPERFSGSSSGTTVTLTISGVQAEDEADYYCQSADSTGIVVFGGGTKLTVL
notes: also called 335S Fab
B6: Fab generated from 203S (Fab, V domains shown)
VH: QVQLVQSGAEVKKPGSSVKVSCKASGGTFSSYAISWVRQAPGQGLEWLGRILPALGLANYAQKYQDRVKITADKSTSTAYMELSRLGSEDTAVYYCARDRWVGAARRGQYFDYWGQGTQVTVSS
VL: DIQMTQSPATLSASVGDRVTITCRASQSIGTWLAWYQQKPGKAPKLLIYDASSLESGVPPRFSGSGSETEFTLTISSLQPDDFATYYCHQYKSYSYTFGQGTKLEIK
notes: also called 203S Fab
B7: Fab generated from 102S (Fab, V domains shown)
VH: EVQLVESGGGLVQPGGSLRLSCSASGFTFHSYDMNWARQAPGKGLEWVSEISSSGQSKNYADSVRGRFTISRDNAKNSLYLQINSLRSEDTAVYYCARVGFVAKFGSDFSITHGTYYLDYWGQGTLVTVSS
VL: B2 VL with E1Q, I2L, T53N, I56P, I58V, V65S, T72S, Q89L, L97W, G101Q

Biological target: T1, full-length Sudan GP (GPFL) (Sudan virus (SUDV), UniProt Q7T9D9 33-650)
T1 construct: also called Sudan GPFL; GP(S)FL
T1 sequence: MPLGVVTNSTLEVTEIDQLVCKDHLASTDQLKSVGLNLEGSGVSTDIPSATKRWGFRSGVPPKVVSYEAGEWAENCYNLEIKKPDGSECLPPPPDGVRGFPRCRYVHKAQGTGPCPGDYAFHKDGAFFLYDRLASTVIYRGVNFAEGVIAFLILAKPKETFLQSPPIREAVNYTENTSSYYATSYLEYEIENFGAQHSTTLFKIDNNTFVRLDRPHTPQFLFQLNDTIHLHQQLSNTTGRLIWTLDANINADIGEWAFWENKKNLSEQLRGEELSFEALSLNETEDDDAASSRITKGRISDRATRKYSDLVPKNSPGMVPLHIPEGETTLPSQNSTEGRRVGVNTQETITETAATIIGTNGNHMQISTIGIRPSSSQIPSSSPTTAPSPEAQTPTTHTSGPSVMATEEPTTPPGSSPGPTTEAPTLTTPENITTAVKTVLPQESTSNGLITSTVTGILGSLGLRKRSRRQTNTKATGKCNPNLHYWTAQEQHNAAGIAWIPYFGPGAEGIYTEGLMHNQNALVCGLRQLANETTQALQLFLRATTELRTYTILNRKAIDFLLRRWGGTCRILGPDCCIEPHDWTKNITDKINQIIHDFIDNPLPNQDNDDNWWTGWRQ
Experiment: BLI, Fab, pH 5.3

Binder	Kd [nM]	koff [s⁻¹]	kon [M⁻¹ s⁻¹]
B1	23.7	0.000418	17600
B2	5.58	4.65e-05	8330
B3	63.7	0.000571	8970
B4	4.26	8.93e-05	21000
B5	12.6	0.000352	27800
B6	118	0.00046	3880

Biological target: T1, full-length Sudan GP (GPFL)
Experiment: BLI, Fab, pH 7.4

Binder	Kd [nM]	koff [s⁻¹]	kon [M⁻¹ s⁻¹]
B1	27.4	0.000632	23100
B2	9.11	0.000387	42500
B7	91.2	0.00504	55300
B3	36.7	0.000631	17200
B4	8.37	0.000303	36200
B5	5.6	0.000496	88500
B6	26.1	0.000376	14400
